# Target: HLA-B*2705 heavy chain with the C-terminal sv5 epitope tag (human)
# Experiment: two-dimensional gel electrophoresis (non-reducing) and immunoblot; 24-hour stimulated KG-1.B27sv5 cell lysates resolved under non-reducing conditions, immunoblot with HC10 or pK
substance,measurement,value
HLA-B*2705 heavy chain with the C-terminal sv5 epitope tag (natural protein),stoichiometry N,2

# From paper PMC2575614
